Reference: publication PMC9537309

B1: FLAG-tagged DND1 wild-type (Dead End, full-length human protein 1-353) [human] / HNRNPL [human (endogenous in HEK293T)] (parent)
chain 1: MQSKRDCELWCERVNPENKAALEAWVRETGIRLVQVNGQRKYGGPPPGWVGSPPPAGSEVFIGRLPQDVYEHQLIPLFQRVGRLYEFRLMMTFSGLNRGFAYARYSSRRGAQAAIATLHNHPLRPSCPLLVCRSTEKCELSVDGLPPNLTRSALLLALQPLGPGLQEARLLPSPGPAPGQIALLKFSSHRAAAMAKKALVEGQSHLCGEQVAVEWLKPDLKQRLRQQLVGPFLRSPQPEGSQLALARDKLGFQGARATLQLLCQRMKLGSPVFLTKCLGIGPAGWHRFWYQVVIPGHPVPFSGLIWVVLTLDGRDGHEVAKDAVSVRLLQALSESGANLLWSAGAEAGTMVKQ
chain 2: MSRRLLPRAEKRRRRLEQRQQPDEQRRRSGAMVKMAAAGGGGGGGRYYGGGSEGGRAPKRLKTDNAGDQHGGGGGGGGGAGAAGGGGGGENYDDPHKTPASPVVHIRGLIDGVVEADLVEALQEFGPISYVVVMPKKRQALVEFEDVLGACNAVNYAADNQIYIAGHPAFVNYSTSQKISRPGDSDDSRSVNSVLLFTILNPIYSITTDVLYTICNPCGPVQRIVIFRKNGVQAMVEFDSVQSAQRAKASLNGADIYSGCCTLKIEYAKPTRLNVFKNDQDTWDYTNPNLSGQGDPGSNPNKRQRQPPLLGDHPAEYGGPHGGYHSHYHDEGYGPPPPHYEGRRMGPPVGGHRRGPSRYGPQYGHPPPPPPPPEYGPHADSPVLMVYGLDQSKMNCDRVFNVFCLYGNVEKVKFMKSKPGAAMVEMADGYAVDRAITHLNNNFMFGQKLNVCVSKQPAIMPGQSYGLEDGSCSYKDFSESRNNRFSTPEQAAKNRIQHPSNVLHFFNAPLEVTEENFFEICDELGVKRPSSVKVFSGKSERSSSGLLEWESKSDALETLGFLNHYQMKNPNGPYPYTLKLCFSTAQHAS
B2: FLAG-tagged DND1 wild-type (Dead End, full-length human protein 1-353) [human] / DHX30 [human (endogenous in HEK293T)] (parent)
chain 1: B1 chain 1
chain 2: MFSLDSFRKDRAQHRQRQCKLPPPRLPPMCVNPTPGGTISRASRDLLKEFPQPKNLLNSVIGRALGISHAKDKLVYVHTNGPKKKKVTLHIKWPKSVEVEGYGSKKIDAERQAAAAACQLFKGWGLLGPRNELFDAAKYRVLADRFGSPADSWWRPEPTMPPTSWRQLNPESIRPGGPGGLSRSLGREEEEDEEEELEEGTIDVTDFLSMTQQDSHAPLRDSRGSSFEMTDDDSAIRALTQFPLPKNLLAKVIQIATSSSTAKNLMQFHTVGTKTKLSTLTLLWPCPMTFVAKGRRKAEAENKAAALACKKLKSLGLVDRNNEPLTHAMYNLASLRELGETQRRPCTIQVPEPILRKIETFLNHYPVESSWIAPELRLQSDDILPLGKDSGPLSDPITGKPYVPLLEAEEVRLSQSLLELWRRRGPVWQEAPQLPVDPHRDTILNAIEQHPVVVISGDTGCGKTTRIPQLLLERYVTEGRGARCNVIITQPRRISAVSVAQRVSHELGPSLRRNVGFQVRLESKPPSRGGALLFCTVGILLRKLQSNPSLEGVSHVIVDEVHERDVNTDFLLILLKGLQRLNPALRLVLMSATGDNERFSRYFGGCPVIKVPGFMYPVKEHYLEDILAKLGKHQYLHRHRHHESEDECALDLDLVTDLVLHIDARGEPGGILCFLPGWQEIKGVQQRLQEALGMHESKYLILPVHSNIPMMDQKAIFQQPPVGVRKIVLATNIAETSITINDIVHVVDSGLHKEERYDLKTKVSCLETVWVSRANVIQRRGRAGRCQSGFAYHLFPRSRLEKMVPFQVPEILRTPLENLVLQAKIHMPEKTAVEFLSKAVDSPNIKAVDEAVILLQEIGVLDQREYLTTLGQRLAHISTDPRLAKAIVLAAIFRCLHPLLVVVSCLTRDPFSSSLQNRAEVDKVKALLSHDSGSDHLAFVRAVAGWEEVLRWQDRSSRENYLEENLLYAPSLRFIHGLIKQFSENIYEAFLVGKPSDCTLASAQCNEYSEEEELVKGVLMAGLYPNLIQVRQGKVTRQGKFKPNSVTYRTKSGNILLHKSTINREATRLRSRWLTYFMAVKSNGSVFVRDSSQVHPLAVLLLTDGDVHIRDDGRRATISLSDSDLLRLEGDSRTVRLLKELRRALGRMVERSLRSELAALPPSVQEEHGQLLALLAELLRGPCGSFDVRKTADD
B3: FLAG-tagged DND1 wild-type (Dead End, full-length human protein 1-353) [human] / SYNCRIP [human (endogenous in HEK293T)] (parent)
chain 1: B1 chain 1
chain 2: MATEHVNGNGTEEPMDTTSAVIHSENFQTLLDAGLPQKVAEKLDEIYVAGLVAHSDLDERAIEALKEFNEDGALAVLQQFKDSDLSHVQNKSAFLCGVMKTYRQREKQGTKVADSSKGPDEAKIKALLERTGYTLDVTTGQRKYGGPPPDSVYSGQQPSVGTEIFVGKIPRDLFEDELVPLFEKAGPIWDLRLMMDPLTGLNRGYAFVTFCTKEAAQEAVKLYNNHEIRSGKHIGVCISVANNRLFVGSIPKSKTKEQILEEFSKVTEGLTDVILYHQPDDKKKNRGFCFLEYEDHKTAAQARRRLMSGKVKVWGNVGTVEWADPIEDPDPEVMAKVKVLFVRNLANTVTEEILEKAFSQFGKLERVKKLKDYAFIHFDERDGAVKAMEEMNGKDLEGENIEIVFAKPPDQKRKERKAQRQAAKNQMYDDYYYYGPPHMPPPTRGRGRGGRGGYGYPPDYYGYEDYYDYYGYDYHNYRGGYEDPYYGYEDFQVGARGRGGRGARGAAPSRGRGAAPPRGRAGYSQRGGPGSARGVRGARGGAQQQRGRGVRGARGGRGGNVGGKRKADGYNQPDSKRRQTNNQNWGSQPIAQQPLQGGDHSGNYGYKSENQEFYQDTFGQQWK
B4: FLAG-tagged DND1 wild-type (Dead End, full-length human protein 1-353) [human] / HNRNPC [human (endogenous in HEK293T)] (parent)
chain 1: B1 chain 1
chain 2: MASNVTNKTDPRSMNSRVFIGNLNTLVVKKSDVEAIFSKYGKIVGCSVHKGFAFVQYVNERNARAAVAGEDGRMIAGQVLDINLAAEPKVNRGKAGVKRSAAEMYGSVTEHPSPSPLLSSSFDLDYDFQRDYYDRMYSYPARVPPPPPIARAVVPSKRQRVSGNTSRRGKSGFNSKSGQRGSSKSGKLKGDDLQAIKKELTQIKQKVDSLLENLEKIEKEQSKQAVEMKNDKSEEEQSSSSVKKDETNVKMESEGGADDSAEEGDLLDDDDNEDRGDDQLELIKDDEKEAEEGEDDRDSANGEDDS
B5: FLAG-tagged DND1 wild-type (Dead End, full-length human protein 1-353) [human] / MEX3A [human (endogenous in HEK293T)] (parent)
chain 1: B1 chain 1
chain 2: MPSLVVSGIMERNGGFGELGCFGGSAKDRGLLEDERALQLALDQLCLLGLGEPPAPTAGEDGGGGGGGAPAQPAAPPQPAPPPPPAAPPAAPTAAPAAQTPQPPTAPKGASDAKLCALYKEAELRLKGSSNTTECVPVPTSEHVAEIVGRQGCKIKALRAKTNTYIKTPVRGEEPVFMVTGRREDVATARREIISAAEHFSMIRASRNKSGAAFGVAPALPGQVTIRVRVPYRVVGLVVGPKGATIKRIQQQTNTYIITPSRDRDPVFEITGAPGNVERAREEIETHIAVRTGKILEYNNENDFLAGSPDAAIDSRYSDAWRVHQPGCKPLSTFRQNSLGCIGECGVDSGFEAPRLGEQGGDFGYGGYLFPGYGVGKQDVYYGVAETSPPLWAGQENATPTSVLFSSASSSSSSSAKARAGPPGAHRSPATSAGPELAGLPRRPPGEPLQGFSKLGGGGLRSPGGGRDCMVCFESEVTAALVPCGHNLFCMECAVRICERTDPECPVCHITATQAIRIFS
B6: FLAG-tagged DND1 wild-type (Dead End, full-length human protein 1-353) [human] / RNA helicase MOV10 [human (endogenous in HEK293T)] (parent)
chain 1: B1 chain 1
chain 2: MPSKFSCRQLREAGQCFESFLVVRGLDMETDRERLRTIYNRDFKISFGTPAPGFSSMLYGMKIANLAYVTKTRVRFFRLDRWADVRFPEKRRMKLGSDISKHHKSLLAKIFYDRAEYLHGKHGVDVEVQGPHEARDGQLLIRLDLNRKEVLTLRLRNGGTQSVTLTHLFPLCRTPQFAFYNEDQELPCPLGPGECYELHVHCKTSFVGYFPATVLWELLGPGESGSEGAGTFYIARFLAAVAHSPLAAQLKPMTPFKRTRITGNPVVTNRIEEGERPDRAKGYDLELSMALGTYYPPPRLRQLLPMLLQGTSIFTAPKEIAEIKAQLETALKWRNYEVKLRLLLHLEELQMEHDIRHYDLESVPMTWDPVDQNPRLLTLEVPGVTESRPSVLRGDHLFALLSSETHQEDPITYKGFVHKVELDRVKLSFSMSLLSRFVDGLTFKVNFTFNRQPLRVQHRALELTGRWLLWPMLFPVAPRDVPLLPSDVKLKLYDRSLESNPEQLQAMRHIVTGTTRPAPYIIFGPPGTGKTVTLVEAIKQVVKHLPKAHILACAPSNSGADLLCQRLRVHLPSSIYRLLAPSRDIRMVPEDIKPCCNWDAKKGEYVFPAKKKLQEYRVLITTLITAGRLVSAQFPIDHFTHIFIDEAGHCMEPESLVAIAGLMEVKETGDPGGQLVLAGDPRQLGPVLRSPLTQKHGLGYSLLERLLTYNSLYKKGPDGYDPQFITKLLRNYRSHPTILDIPNQLYYEGELQACADVVDRERFCRWAGLPRQGFPIIFHGVMGKDEREGNSPSFFNPEEAATVTSYLKLLLAPSSKKGKARLSPRSVGVISPYRKQVEKIRYCITKLDRELRGLDDIKDLKVGSVEEFQGQERSVILISTVRSSQSFVQLDLDFNLGFLKNPKRFNVAVTRAKALLIIVGNPLLLGHDPDWKVFLEFCKENGGYTGCPFPAKLDLQQGQNLLQGLSKLSPSTSGPHSHDYLPQEREGEGGLSLQVEPEWRNEL
B7: FLAG-tagged DND1 wild-type (Dead End, full-length human protein 1-353) [human] / MATR3 [human (endogenous in HEK293T)] (parent)
chain 1: B1 chain 1
chain 2: MSKSFQQSSLSRDSQGHGRDLSAAGIGLLAAATQSLSMPASLGRMNQGTARLASLMNLGMSSSLNQQGAHSALSSASTSSHNLQSIFNIGSRGPLPLSSQHRGDADQASNILASFGLSARDLDELSRYPEDKITPENLPQILLQLKRRRTEEGPTLSYGRDGRSATREPPYRVPRDDWEEKRHFRRDSFDDRGPSLNPVLDYDHGSRSQESGYYDRMDYEDDRLRDGERCRDDSFFGETSHNYHKFDSEYERMGRGPGPLQERSLFEKKRGAPPSSNIEDFHGLLPKGYPHLCSICDLPVHSNKEWSQHINGASHSRRCQLLLEIYPEWNPDNDTGHTMGDPFMLQQSTNPAPGILGPPPPSFHLGGPAVGPRGNLGAGNGNLQGPRHMQKGRVETSRVVHIMDFQRGKNLRYQLLQLVEPFGVISNHLILNKINEAFIEMATTEDAQAAVDYYTTTPALVFGKPVRVHLSQKYKRIKKPEGKPDQKFDQKQELGRVIHLSNLPHSGYSDSAVLKLAEPYGKIKNYILMRMKSQAFIEMETREDAMAMVDHCLKKALWFQGRCVKVDLSEKYKKLVLRIPNRGIDLLKKDKSRKRSYSPDGKESPSDKKSKTDGSQKTESSTEGKEQEEKSGEDGEKDTKDDQTEQEPNMLLESEDELLVDEEEAAALLESGSSVGDETDLANLGDVASDGKKEPSDKAVKKDGSASAAAKKKLKKVDKIEELDQENEAALENGIKNEENTEPGAESSENADDPNKDTSENADGQSDENKDDYTIPDEYRIGPYQPNVPVGIDYVIPKTGFYCKLCSLFYTNEEVAKNTHCSSLPHYQKLKKFLNKLAEERRQKKET

Variants of: B1
Test: FLAG immunoprecipitation and LC/ESI-MS/MS
Details: with HNRNPL [human (endogenous in HEK293T)]; HEK293T cells, three biological replicates; read off a plot

Row | screen value | Variant
1 | -1.7 | chain 1 R98A

Variants of: B2
Test: FLAG immunoprecipitation and LC/ESI-MS/MS
Details: with DHX30 [human (endogenous in HEK293T)]; HEK293T cells, three biological replicates; read off a plot

Row | screen value | Variant
2 | -2.3 | chain 1 R98A

Variants of: B3
Test: FLAG immunoprecipitation and LC/ESI-MS/MS
Details: with SYNCRIP [human (endogenous in HEK293T)]; HEK293T cells, three biological replicates; read off a plot

Row | screen value | Variant
3 | -2.5 | chain 1 R98A

Variants of: B4
Test: FLAG immunoprecipitation and LC/ESI-MS/MS
Details: with HNRNPC [human (endogenous in HEK293T)]; HEK293T cells, three biological replicates; read off a plot

Row | screen value | Variant
4 | -0.8 | chain 1 R98A

Variants of: B5
Test: FLAG immunoprecipitation and LC/ESI-MS/MS
Details: with MEX3A [human (endogenous in HEK293T)]; HEK293T cells, three biological replicates; read off a plot

Row | screen value | Variant
5 | -3.2 | chain 1 R98A

Variants of: B6
Test: FLAG immunoprecipitation and LC/ESI-MS/MS
Details: with RNA helicase MOV10 [human (endogenous in HEK293T)]; HEK293T cells, three biological replicates; read off a plot

Row | screen value | Variant
6 | -3.2 | chain 1 R98A

Variants of: B7
Test: FLAG immunoprecipitation and LC/ESI-MS/MS
Details: with MATR3 [human (endogenous in HEK293T)]; HEK293T cells, three biological replicates; read off a plot

Row | screen value | Variant
7 | -0.52 | chain 1 R98A
